# Patent US6573364 (CURAGEN, dated 2003)
# T1: HPS protein fragment 1272-2306 fused to the Gal4 activator domain (reverse screen) (yeast; human, UniProt Q92902 356-700)
# T1 construct: Residue limits are derived from the printed nucleotide limits; also called HPS protein domain comprised of nucleotides 1272-2306; HPS U65676 1272-2306; not shown: order of the two pie
# T1 sequence: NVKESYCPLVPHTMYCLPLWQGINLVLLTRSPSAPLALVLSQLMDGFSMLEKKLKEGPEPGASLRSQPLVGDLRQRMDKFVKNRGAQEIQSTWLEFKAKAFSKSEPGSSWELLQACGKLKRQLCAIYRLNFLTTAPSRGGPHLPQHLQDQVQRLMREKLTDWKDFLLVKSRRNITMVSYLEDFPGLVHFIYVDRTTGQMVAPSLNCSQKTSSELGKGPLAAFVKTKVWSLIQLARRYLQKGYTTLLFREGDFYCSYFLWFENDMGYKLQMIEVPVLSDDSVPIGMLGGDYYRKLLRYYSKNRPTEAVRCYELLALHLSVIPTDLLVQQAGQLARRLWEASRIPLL
# B1: HPS protein fragment 1272-2357 fused to the Gal4 activator domain (reverse screen) (other)
# chain: T1 sequence
# notes: Codes for the same HPS residues as the 1272-2306 construct but is a separate construct; also called HPS protein domain 1272-2357; HPS U65676 1272-2357; not shown: order of the two pie
# B2: BMK1 alpha kinase, prey insert starting at nucleotide 2431 of GenBank U29725, fused to the Gal4 DNA binding domain (other, yeast)
# chain: MKLLSSIEQACDICRLKKLKCSKEKPKCAKCLKNNWECRYSPKTKRSPLTRAHLTEVESRLERLEQLFLLIFPREDLDMILKMDSLQDIKALLTGLFVQDNVNKDAVTDRLASVETDMPLTLRQHRISATSSSEESSNKGQRQLTVSGAGYGVGFDLEEFLNQSFDMGVADGPQDGQADSASLSASLLADWLEGHGMNPADIESLQREIQMDSPMLLADLPDLQDP
# notes: Prey of the reverse screen, 2 isolates; Residue limits derived from the printed nucleotide start
# B3: HPIP1 (prey sequence of 619 nucleotides, interaction starting at nucleotide 1) fused to the Gal4 activator domain (other, not shown: large carriers)
# chain: GTRLSINPNNHSWLIIQADIYFATNQYSAALHYYLQAGAVCSDFFNKAVPPDVYTDQVIKRMIKCCSLLNCHTQVAILCQFLREIDYKTAFKSLQEQNSHDAMDSYYDYIWDVTILEYLTYLHHKRGETDKRQIAIKAIGQTELNASNPEEVLQLAAQRRKKKFLQAMAKLYF
# notes: Prey of the forward screen, 3 identical clones from a human fetal brain cDNA library; also called cg49368.b1; cg49367.h11
# B4: HPS protein fragment 210-1292 fused to the Gal4 activator domain (reverse screen) (other)
# chain: KCVLVATEGAEVLFYWTDQEFEESLRLKFGQSENEEEELPALEDQLSTLLAPVIISSMTMLEKLSDTYTCFSTENGNFLYVLHLFGECLFIAINGDHTESEGDLRRKLYVLKYLFEVHFGLVTVDGHLIRKELRPPDLAQRVQLWEHFQSLLWTYSRLREQEQCFAVEALERLIHPQLCELCIEALERHVIQAVNTSPERGGEEALHAFLLVHSKLLAFYSSHSASSLRPADLLALILLVQDLYPSESTAEDDIQPSPRRARSSQNIPVQQAWSPHSTGPTGGSSAETETDSFSLPEEYFTPAPSPGDQSSGSTIWLEGGTPPMDALQIAEDTLQTLVPHCPVPSGPRRIFLDANVKESYC
# notes: Residue limits are derived from the printed nucleotide limits; also called HPS protein domain 210-1292; HPS U65676 210-1292; not shown: order of the two pie
# B5: 14-3-3 protein eta isoform, prey insert starting at nucleotide 764 of GenBank X80536, fused to the Gal4 DNA binding domain (other, yeast)
# chain: MKLLSSIEQACDICRLKKLKCSKEKPKCAKCLKNNWECRYSPKTKRSPLTRAHLTEVESRLERLEQLFLLIFPREDLDMILKMDSLQDIKALLTGLFVQDNVNKDAVTDRLASVETDMPLTLRQHRISATSSSEESSNKGQRQLTVSQACLLAKQAFDDAIAELDTLNEDSYKDSTLIMQLLRDNLTLWTSDQQDEEAGEGN
# notes: Prey from a human fetal brain cDNA library, reverse screens; Residue limits derived from the printed nucleotide start; also called 14-3-3 eta
# What was measured:
# [1] = biological target: T2, CDK2, prey insert starting at nucleotide 4 of GenBank X61622, fused to the Gal4 DNA binding domain (yeast; human, UniProt P04386 1-147); assay: yeast two-hybrid, reverse screen; listed in Table I as an interaction with HPS 1272-2357, 1 isolate
# T2 construct: Prey of the reverse screen; Residue limits derived from the printed nucleotide start; also called CDK2 X61622 4-*
# Experimental: (§1) The two mating strains ([…]) were then diluted in YAPD media (see Id.) filtered onto nitrocellulose membranes and incubated at 30° C. for 6–8 hours. […] The mating products were plated on synthetic complete (SC) media (see Kaiser, Michaelis & Mitchell, Eds., 1994. *Methods in Yeast Genetics*, 1994 *Ed.* (Cold Spring Harbor Laboratory Press, New York, N.Y.) lacking adenine and lysine (to select for successful mating), leucine and tryptophan (to select for expression of genes encoded by both the bait and prey plasmids), and uracil and histidine (to select for protein interactions). This medium is hereinafter referred to as SCS medium, for SC Selective medium.
# (§2) Selected clones were subsequently examined for expression of β-galactosidase to confirm the formation of an HPS protein•HPS protein-IP interaction. […]
# (§3) The cells contained within colonies which were "positive" for protein interaction contained a mixture of DNA-binding and activation-domain plasmids. […] Approximately 10 μl of each selected isolate was lysed, the inserts within the pAD-GAL4 or pGAD-GH for the activation domain plasmids and pBD-GAL4 or pGBT9BS plasmids were PCR amplified using primers specific for the flanking sequences of each vector and approximately 300 nucleotides (of what would be the protein's amino-terminus following translation) was determined using an ABI 377 sequenator. […]
# [2] = biological target: B4; assay: yeast two-hybrid, reverse screen; listed in Table I as an interaction with HPS 210-1292, 2 isolates
# Experimental: as §1, §2, §3
# [3] = biological target: T3, HPS protein bait fragment 210-1292 fused to the Gal4 DNA binding domain (forward screen) (yeast; human, UniProt P04386 1-147); assay: yeast two-hybrid, forward screen; listed in Table I as an interaction with HPS 210-1292, 3 isolates
# T3 construct: Residue limits are derived from the printed nucleotide limits; also called Hermansky-Pudlak Syndrome protein; HPS U65676 210-1292
# Experimental: as §1, §2, §3
# [4] = biological target: T4, Atrophin-1, prey insert starting at nucleotide 2649 of GenBank U23851, fused to the Gal4 DNA binding domain (yeast; human, UniProt P04386 1-147); assay: yeast two-hybrid, reverse screen; listed in Table I as an interaction with HPS 210-1292, 1 isolate
# T4 construct: Prey of the reverse screen; Residue limits derived from the printed nucleotide start; also called Atrophin I; atrophin-I
# Experimental: as §1, §2, §3
# [5] = biological target: T1, HPS protein fragment 1272-2306 fused to …; assay: yeast two-hybrid, reverse screen; listed in Table I as an interaction with HPS 1272-2306, 1 isolate
# Experimental: as §1, §2, §3
# [6] = biological target: B1; assay: yeast two-hybrid, reverse screen; listed in Table I as an interaction with HPS 1272-2357, 1 isolate
# Experimental: as §1, §2, §3
binder,measurement,setting,value
B1,binding result,[1],binds
B2,binding result,[2],binds
B3,binding result,[3],binds
B4,binding result,[4],binds
B5,binding result,[5],binds
same,binding result,[6],binds
